Data published in patent JP2022028645A.

Key:
Experiment in all cases: SPR (Biacore T200), TYRP1 ECD-Fc captured by anti-PGLALA antibody, 1:1 Langmuir fit
[1] = target: Mouse TYRP1 extracellular domain (ECD), monomeric fusion to human Fc domain with knob-into-hole and PG LALA modifications and C-terminal Avi-tag (mouse) [IgG part: P01857]
[2] = target: Cynomolgus TYRP1 extracellular domain (ECD), monomeric fusion to human Fc domain with knob-into-hole and PG LALA modifications and C-terminal Avi-tag (cynomolgus monkey) [IgG part: P01857]
[3] = target: Human TYRP1 extracellular domain (ECD), monomeric fusion to human Fc domain with knob-into-hole and PG LALA modifications and C-terminal Avi-tag (human) [IgG part: P01857]

Kd [1]: 0.31 nM
Kd [2]: 0.12 nM
Kd [3]: 0.09 nM
Substance: 親TA99抗体 (parental TYRP1 antibody TA99)
